Key:
[1] = target: constitutively active BMPR-IB; assay: cell-based or functional assay
[2] = target: constitutively active (TD) TβR-I (UniProt P36897); assay: cell-based or functional assay
constitutively active (TD) TβR-I, sequence (P36897 34-503 T204D limits assumed): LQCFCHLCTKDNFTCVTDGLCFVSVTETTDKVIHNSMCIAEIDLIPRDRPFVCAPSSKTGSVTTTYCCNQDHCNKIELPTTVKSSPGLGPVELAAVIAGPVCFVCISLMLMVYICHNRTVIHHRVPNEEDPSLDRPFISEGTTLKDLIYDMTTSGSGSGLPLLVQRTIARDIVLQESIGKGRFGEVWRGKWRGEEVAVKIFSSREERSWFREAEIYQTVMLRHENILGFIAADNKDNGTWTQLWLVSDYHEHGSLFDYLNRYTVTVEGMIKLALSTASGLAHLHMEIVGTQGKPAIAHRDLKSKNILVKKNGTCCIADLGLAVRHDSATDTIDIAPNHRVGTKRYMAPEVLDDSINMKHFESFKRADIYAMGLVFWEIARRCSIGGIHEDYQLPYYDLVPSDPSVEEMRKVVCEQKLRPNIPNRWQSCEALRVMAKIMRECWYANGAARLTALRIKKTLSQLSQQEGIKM

Smad1 phosphorylation induced by constitutively active BMPR-IB [1]: 60 % reduction | Phosphorylation of Smad2 induced by constitutively active TβR-I ([32P]orthophosphate labeling, immunoprecipitation) [2]: 39 % reduction
Substance: Myc-Smad6 (from UniProt O35182 1-495)

— patent publication US20040053278A1
